According to patent US20190367586A1:

Molecular target: RSV strain 18537 pre-fusion F (Ds-Cav1) (human respiratory syncytial virus subgroup B strain 18537) (UniProt P13843)
Assay: ELISA, F protein coated

Sequence of RSV strain 18537 pre-fusion F (Ds-Cav1) (human respiratory syncytial virus subgroup B strain 18537) (P13843 26-513): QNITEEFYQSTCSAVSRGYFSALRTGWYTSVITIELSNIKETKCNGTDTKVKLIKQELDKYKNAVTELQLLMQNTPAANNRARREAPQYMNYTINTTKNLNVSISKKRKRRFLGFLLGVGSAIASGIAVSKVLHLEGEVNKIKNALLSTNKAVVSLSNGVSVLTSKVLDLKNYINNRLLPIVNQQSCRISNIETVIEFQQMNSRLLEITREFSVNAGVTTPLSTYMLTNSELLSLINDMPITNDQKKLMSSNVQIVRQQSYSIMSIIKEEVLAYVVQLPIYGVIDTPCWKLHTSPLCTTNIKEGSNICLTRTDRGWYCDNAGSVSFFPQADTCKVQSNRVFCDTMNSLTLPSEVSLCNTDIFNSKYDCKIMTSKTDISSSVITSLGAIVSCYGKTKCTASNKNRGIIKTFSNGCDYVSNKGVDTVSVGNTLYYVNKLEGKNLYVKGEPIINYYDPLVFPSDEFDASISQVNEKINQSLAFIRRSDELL

Row | Substance | EC50 [µg/mL]
1 | motavizumab (antibody) | 0.022
2 | palivizumab (antibody) | 0.046
